These results are taken from patent US20040265932A1 (AbbVie / Abbott, published 2004).

This experiment deals with T1, Mammaglobin polypeptide from breast cancer tissue extract (human, UniProt Q13296 19-93, glycoprotein (Asn 53 and/or Asn 68 may carry sugars)).
T1 construct: native protein in tissue extract, 17-23 kD reduced
Briefly: legend of FIG. 20A-D; MonoQ fractions, dot blots and Western blots. The procedure:
C. Ion Exchange Chromatography The breast cancer tissue extract derived from the patient with invasive, poorly differentiated adenocarcinoma (breast) (FIG. 11, lanes. 4 and 10) was purified using anion exchange chromatography. Specifically, the 800 uL extract was applied to a Mono Q 5/5 column (Pharmacia) equilibrated with 20 mM piperazine, pH 6.0. The proteins were eluted using a linear gradient of sodium chloride. The flow rate was 1 mL/min; the gradient was 20 mM sodium chloride per milliliter of buffer; and the elution time was 50 minutes; creating an elution profile that went from 0 to 1000 mM sodium chloride. The sample loading time was 30 minutes prior to application of the elution gradient. Each 1 mL fraction was sampled. One hundred microliters of each fraction was boiled in the presence of 0.1% beta-mercaptoethanol and was then applied to a well of a dot blot apparatus and the volume was suctioned through a piece of nitrocellulose. The nitrocellulose filter was then developed with the same procedure to develop Western blots, as described hereinabove in Example 7B, using polyclonal antisera recognizing either BU101 or Mam. […]
Protein extracted from breast tissue was fractionated using a MonoQ column at pH6 and eluted using increasing salt gradient. […] The MamBu complex is detected using both antibodies under non-reducing conditions (FIGS. 20C & D). […]

T1 sequence (Q13296 19-93 limits assumed): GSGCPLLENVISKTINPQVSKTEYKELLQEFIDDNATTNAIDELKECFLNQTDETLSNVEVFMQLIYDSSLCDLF

B1: BU101 polypeptide from breast cancer tissue extract (other)
chain: EFCPALVSELLDFFFISEPLFKLSLAKFDAPPEAVAAKLGVKRCTDQMSLQKRSLIAEVLVKILKKCSV
notes: native protein in tissue extract, about 7 kD reduced
Take B1: the binding result was “binds”.
